Laboratory results published in US20230114801A1 (SYSTIMMUNE, published 2023).
Blank lines part the entries; values can stand above or below the binder they belong to.

Key:
[1] = biological target: T1, human HER3 (human, UniProt P21860 20-643); assay: BLI (Octet), binder on AHC sensor, 100 nM human antigen, 1:1 fit
T1 construct: Soluble antigen in Octet; bought; also called human HER3 (Acro ER3-H5223)

[2] = biological target: T2, human EGFR (human, UniProt P00533 25-645, limits assumed); assay: as above
T2 construct: Soluble antigen in Octet; construct not described

[3] = biological target: T3, human CD3 (human, UniProt P07766 23-126; P04234 22-105); assay: as above
T3 construct: also called His-tagged human CD3; human CD3 (Acro CDD-H52W1)

[4] = biological target: T2, human EGFR; assay: BLI (Octet), binder on AHC sensor, 200 nM human EGFR, 1:1 fit
[5] = biological target: T3, human CD3; assay: BLI (Octet), binder on AHC sensor, 100 nM human CD3, 1:1 fit

Kd [1]: 93.8 nM | Kd [2]: 2.72 nM | Kd [3]: 47.3 nM
B1: SI-75X18 (other)
chain 1: QVQLQESGGRLVQPGEPLSLTCKTSGIDLSSNAIGWVRQAPGKGLEWIGVIFGSGNTYYASWAKGRFTISRSTSTVYLKMNSLRSEDTAIYYCARGGYSSDIWGQGTLVTVSSASTKGPSVFPLAPSSKSTSGGTAALGCLVKDYFPEPVTVSWNSGALTSGVHTFPAVLQSSGLYSLSSVVTVPSSSLGTQTYICNVNHKPSNTKVDKRVEPKSCDKTHTCPPCPAPEAAGGPSVFLFPPKPKDTLMISRTPEVTCVVVDVSHEDPEVKFNWYVDGVEVHNAKTKPREEQYNSTYRVVSVLTVLHQDWLNGKEYKCAVSNKALPAPIEKTISKAKGQPREPQVYTLPPSRDELTKNQVSLSCAVKGFYPSDIAVEWESNGQPENNYKTTPPVLDSDGSFFLVSKLTVDKSRWQQGNVFSCSVMHEALHNHYTQKSLSLSPGGGGGSGGGGSQVQLQQSGPGLVKPSETLSITCTVSGFSLTNYGVHWIRQAPGKGLEWLGVIWSGGNTDYNTPFTSRFTITKDNSKNQVYFKLRSVRADDTAIYYCARALTYYDYEFAYWGQGTLVTVSSGGGGSGGGGSGGGGSGGGGSEIVLTQSPSTLSVSPGERATFSCRASQSIGTNIHWYQQKPGKPPRLLIKYASESISGIPDRFSGSGSGTEFTLTISSVQSEDFAVYYCQQNNNWPTTFGPGTKLTVL
chain 2: DPQLTQSPSSLSATVGQRVTINCQSSQSVAKNNNLAWFQQKPGKPPKLLIYSASTLAAGVPSRFSGSGSGTQFTLTITRVQSEDFATYYCSARDSGNIQSFGGGTRVEIKRTVAAPSVFIFPPSDEQLKSGTASVVCLLNNFYPREAKVQWKVDNALQSGNSQESVTEQDSKDSTYSLSSTLTLSKADYEKHKVYACEVTHQGLSSPVTKSFNRGECGGDKTHTCPPCPAPEAAGGPSVFLFPPKPKDTLMISRTPEVTCVVVDVSHEDPEVKFNWYVDGVEVHNAKTKPREEQYNSTYRVVSVLTVLHQDWLNGKEYKCAVSNKALPAPIEKTISKAKGQPREPQVYTLPPSRDELTKNQVSLWCLVKGFYPSDIAVEWESNGQPENNYKTTPPVLDSDGSFFLYSKLTVDKSRWQQGNVFSCSVMHEALHNRFTQKSLSLSPGGGGGSGGGGSQVQLQESGGGLVKPGGSLSLSCAASGFTFSSYWMSWVRQAPGKGLEWVANINRDGSASYYVDSVKGRFTISRDDAKNSLYLQMNSLRAEDTAVYYCARDRGVGYFDLWGRGTLVTVSSGGGGSGGGGSGGGGSQSALTQPASVSGSPGQSITISCTGTSSDVGGYNFVSWYQQHPGKAPKLMIYDVSDRPSGVSDRFSGSKSGNTASLIISGLQADDEADYYCSSYGSSSTHVIFGGGTKVTVL
notes: tri-miniGNC; D3 αCD3* (Fab), D4 αEGFR, D5 αHER3

Kd [4]: 34 nM | Kd [5]: 56 nM
B2: SI-75X13 (bispecific antibody, human IgG1, kappa, L234A L235A)
chain 1: QVQLQESGGRLVQPGEPLSLTCKTSGIDLSSNAIGWVRQAPGKGLEWIGVIFGSGNTYYASWAKGRFTISRSTSTVYLKMNSLRSEDTAIYYCARGGYSSDIWGQGTLVTVSSASTKGPSVFPLAPSSKSTSGGTAALGCLVKDYFPEPVTVSWNSGALTSGVHTFPAVLQSSGLYSLSSVVTVPSSSLGTQTYICNVNHKPSNTKVDKRVEPKSCDKTHTCPPCPAPEAAGGPSVFLFPPKPKDTLMISRTPEVTCVVVDVSHEDPEVKFNWYVDGVEVHNAKTKPREEQYNSTYRVVSVLTVLHQDWLNGKEYKCAVSNKALPAPIEKTISKAKGQPREPQVYTLPPSRDELTKNQVSLSCAVKGFYPSDIAVEWESNGQPENNYKTTPPVLDSDGSFFLVSKLTVDKSRWQQGNVFSCSVMHEALHNHYTQKSLSLSPGGGGGSGGGGSEVQLQESGGGLVQAGDSLSLSCLVSGRSFNSYTMGWFRQAPGKEREFVAAILWSGPTTYYADSVKGRFTISRDNAKNTVYLQMNSLKPEDTAVYYCAAALGVLVLAPGNVYSYWGQGTQVTVSS
chain 2: DPQLTQSPSSLSATVGQRVTINCQSSQSVAKNNNLAWFQQKPGKPPKLLIYSASTLAAGVPSRFSGSGSGTQFTLTITRVQSEDFATYYCSARDSGNIQSFGGGTRVEIKRTVAAPSVFIFPPSDEQLKSGTASVVCLLNNFYPREAKVQWKVDNALQSGNSQESVTEQDSKDSTYSLSSTLTLSKADYEKHKVYACEVTHQGLSSPVTKSFNRGECGGDKTHTCPPCPAPEAAGGPSVFLFPPKPKDTLMISRTPEVTCVVVDVSHEDPEVKFNWYVDGVEVHNAKTKPREEQYNSTYRVVSVLTVLHQDWLNGKEYKCAVSNKALPAPIEKTISKAKGQPREPQVYTLPPSRDELTKNQVSLWCLVKGFYPSDIAVEWESNGQPENNYKTTPPVLDSDGSFFLYSKLTVDKSRWQQGNVFSCSVMHEALHNRFTQKSLSLSPG
notes: bi-miniGNC; D3 αCD3* (Fab), D4 αEGFR VHH

Kd [4]: 21.6 nM | Kd [5]: 65.7 nM
B3: SI-75X11 (bispecific antibody, human IgG1, kappa, L234A L235A)
chain 1: EVQLQESGGGLVQAGDSLSLSCLVSGRSFNSYTMGWFRQAPGKEREFVAAILWSGPTTYYADSVKGRFTISRDNAKNTVYLQMNSLKPEDTAVYYCAAALGVLVLAPGNVYSYWGQGTQVTVSSGGGGSGGGGSQVQLQESGGRLVQPGEPLSLTCKTSGIDLSSNAIGWVRQAPGKGLEWIGVIFGSGNTYYASWAKGRFTISRSTSTVYLKMNSLRSEDTAIYYCARGGYSSDIWGQGTLVTVSSASTKGPSVFPLAPSSKSTSGGTAALGCLVKDYFPEPVTVSWNSGALTSGVHTFPAVLQSSGLYSLSSVVTVPSSSLGTQTYICNVNHKPSNTKVDKRVEPKSCDKTHTCPPCPAPEAAGGPSVFLFPPKPKDTLMISRTPEVTCVVVDVSHEDPEVKFNWYVDGVEVHNAKTKPREEQYNSTYRVVSVLTVLHQDWLNGKEYKCAVSNKALPAPIEKTISKAKGQPREPQVYTLPPSRDELTKNQVSLSCAVKGFYPSDIAVEWESNGQPENNYKTTPPVLDSDGSFFLVSKLTVDKSRWQQGNVFSCSVMHEALHNHYTQKSLSLSPG
chain 2: B2 chain 2
notes: bi-miniGNC; D1 αEGFR VHH, D3 αCD3* (Fab)

Kd [1]: 113 nM | Kd [2]: 6.8 nM | Kd [3]: 33.4 nM
B4: SI-75X16 (other)
chain 1: EIVLTQSPSTLSVSPGERATFSCRASQSIGTNIHWYQQKPGKPPRLLIKYASESISGIPDRFSGSGSGTEFTLTISSVQSEDFAVYYCQQNNNWPTTFGPGTKLTVLGGGGSGGGGSGGGGSGGGGSQVQLQQSGPGLVKPSETLSITCTVSGFSLTNYGVHWIRQAPGKGLEWLGVIWSGGNTDYNTPFTSRFTITKDNSKNQVYFKLRSVRADDTAIYYCARALTYYDYEFAYWGQGTLVTVSSGGGGSGGGGSQVQLQESGGRLVQPGEPLSLTCKTSGIDLSSNAIGWVRQAPGKGLEWIGVIFGSGNTYYASWAKGRFTISRSTSTVYLKMNSLRSEDTAIYYCARGGYSSDIWGQGTLVTVSSASTKGPSVFPLAPSSKSTSGGTAALGCLVKDYFPEPVTVSWNSGALTSGVHTFPAVLQSSGLYSLSSVVTVPSSSLGTQTYICNVNHKPSNTKVDKRVEPKSCDKTHTCPPCPAPEAAGGPSVFLFPPKPKDTLMISRTPEVTCVVVDVSHEDPEVKFNWYVDGVEVHNAKTKPREEQYNSTYRVVSVLTVLHQDWLNGKEYKCAVSNKALPAPIEKTISKAKGQPREPQVYTLPPSRDELTKNQVSLSCAVKGFYPSDIAVEWESNGQPENNYKTTPPVLDSDGSFFLVSKLTVDKSRWQQGNVFSCSVMHEALHNHYTQKSLSLSPG
chain 2: QSALTQPASVSGSPGQSITISCTGTSSDVGGYNFVSWYQQHPGKAPKLMIYDVSDRPSGVSDRFSGSKSGNTASLIISGLQADDEADYYCSSYGSSSTHVIFGGGTKVTVLGGGGSGGGGSGGGGSGGGGSQVQLQESGGGLVKPGGSLSLSCAASGFTFSSYWMSWVRQAPGKGLEWVANINRDGSASYYVDSVKGRFTISRDDAKNSLYLQMNSLRAEDTAVYYCARDRGVGYFDLWGRGTLVTVSSGGGGSGGGGSDPQLTQSPSSLSATVGQRVTINCQSSQSVAKNNNLAWFQQKPGKPPKLLIYSASTLAAGVPSRFSGSGSGTQFTLTITRVQSEDFATYYCSARDSGNIQSFGGGTRVEIKRTVAAPSVFIFPPSDEQLKSGTASVVCLLNNFYPREAKVQWKVDNALQSGNSQESVTEQDSKDSTYSLSSTLTLSKADYEKHKVYACEVTHQGLSSPVTKSFNRGECGGDKTHTCPPCPAPEAAGGPSVFLFPPKPKDTLMISRTPEVTCVVVDVSHEDPEVKFNWYVDGVEVHNAKTKPREEQYNSTYRVVSVLTVLHQDWLNGKEYKCAVSNKALPAPIEKTISKAKGQPREPQVYTLPPSRDELTKNQVSLWCLVKGFYPSDIAVEWESNGQPENNYKTTPPVLDSDGSFFLYSKLTVDKSRWQQGNVFSCSVMHEALHNRFTQKSLSLSPG
notes: tri-miniGNC; D1 αEGFR, D2 αHER3, D3 αCD3* (Fab)
